Data reported in patent publication US8809001B2, “High throughput assays for inhibitors and activators of PAQR receptors” (University of Florida Research Foundation, Inc., priority 2007, dated 2014).

Legend:
FET3 = experiment: FET3-lacZ reporter in wild type yeast carrying empty expression plasmid; type: cell-based, Saccharomyces cerevisiae; details: no human PAQR
Excerpt: Assays and growth conditions. Strains were maintained using standard protocol and grown in synthetic defined (SD) media with the appropriate amino acids to match the auxotrophies of the individual strains. Low Iron Medium (LIM) contains EDTA to limit iron-bioavailability and its composition has been previously described (Kupchak et al., 2007). […] In brief, overnights of cells grown in SD-glucose media were re-inoculated into iron-deficient LIM to induce the expression of FET3. 2% galactose was used as a carbon source to induce full expression of PAQR genes driven by the GAL1 promoter, while 0.05% galactose/1.95% raffinose was used for reduced PAQR expression. All ligands were added to the growth medium upon re-inoculation into LIM. For experiments in which steroids were added as ligands, steroids were added from ethanol stocks and “untreated” controls are actually treated with an equal volume of ethanol to control for vehicle effects. Cells were allowed to grow to mid-log phase at which time the activity of the FET3 gene was monitored using a FET3-lacZ promoter-reporter construct. lacZ activities are presented as a percentage of activity seen in untreated cells expressing the appropriate empty expression vector control. For individual experiments, each data point has been done in triplicate and the error bars represent +/−1 standard deviation. All experiments were performed at least three times and a representative experiment is shown. EC50 values were obtained using the web-based BioDataFit software using sigmoidal curve-fitting. (web site changbioscience.com/stat/ec50.html)

AdipoR1 = target: T1, AdipoR1 (Homo sapiens, UniProt Q96A54); experiment: FET3-lacZ (pFET3-397) reporter repression in yeast expressing AdipoR1; type: cell-based; details: low levels of AdipoR1 (0.02% galactose)
T1 construct: expressed in transfected cells; host or cells: Saccharomyces cerevisiae BY4742, GAL1-driven pYES260 plasmid
T1 sequence (Q96A54 1-375): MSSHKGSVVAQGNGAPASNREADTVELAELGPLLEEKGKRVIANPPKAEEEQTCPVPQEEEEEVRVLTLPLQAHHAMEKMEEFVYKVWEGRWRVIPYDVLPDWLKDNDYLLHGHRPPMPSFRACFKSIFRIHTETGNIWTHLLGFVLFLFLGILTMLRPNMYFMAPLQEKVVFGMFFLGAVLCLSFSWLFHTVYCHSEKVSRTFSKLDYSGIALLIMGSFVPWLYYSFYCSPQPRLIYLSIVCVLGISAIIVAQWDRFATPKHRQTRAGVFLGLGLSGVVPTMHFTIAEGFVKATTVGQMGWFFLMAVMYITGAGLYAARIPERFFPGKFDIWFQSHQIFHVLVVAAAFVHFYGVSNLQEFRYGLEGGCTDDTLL
Excerpt: IZH1-4 were cloned into pRS316-GAL1 via gap repair as previously described (Lyons et al., 2004). The triple hemaglutinin epitope (3×HA) tagged construct of the IZH2 gene was generated by replacing the ZRC1 promoter and open reading frame in the YCpZRC1-HA plasmid (MacDiarmid et al., 2002) with those of IZH2. This was accomplished by gap repair of Age I-digested YCpZRC1-HA to generate pIZH2-3×HA. This construct has the IZH2 gene driven by its native promoter and retains the ZRC1 terminator sequence. The native IZH2 promoter was then exchanged with the GAL1 promoter using gap repair of pIZH2-3×HA plasmids cut with EcoN I. AdipoR1 and AdipoR2 were amplified from cDNAs obtained from OpenBiosystems (Accession #: BC010743 and BC051858, respectively). PCR products were cloned into NcoI/BamHI digested pYES260 vector (Melcher, 2000) by gap repair allowing for GAL1-driven expression. Plasmids containing GAL1-driven the TAP (Tandem Affinity Purification) tagged NRG1 and NRG2 constructs were purchased from OpenBiosystems. […]
(§1) Assays and growth conditions. […] Cells were allowed to grow to mid-log phase at which time the activity of the FET3 gene was monitored using a FET3-lacZ promoter-reporter construct. lacZ activities are presented as a percentage of activity seen in untreated cells expressing the appropriate empty expression vector control. […]

AdipoR2 = experiment: FET3-lacZ (pFET3-397) reporter repression in yeast expressing AdipoR2; type: cell-based, human
Sequence of AdipoR2 (Q86V24 76-386 limits assumed): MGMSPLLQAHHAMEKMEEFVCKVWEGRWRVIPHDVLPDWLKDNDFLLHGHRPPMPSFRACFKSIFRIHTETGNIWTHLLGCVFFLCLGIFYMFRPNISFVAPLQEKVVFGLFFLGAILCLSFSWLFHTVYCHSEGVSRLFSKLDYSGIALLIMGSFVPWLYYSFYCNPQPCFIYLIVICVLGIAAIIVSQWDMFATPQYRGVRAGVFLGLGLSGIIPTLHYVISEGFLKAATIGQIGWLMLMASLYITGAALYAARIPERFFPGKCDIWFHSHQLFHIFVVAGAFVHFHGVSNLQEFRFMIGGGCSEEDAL
Excerpt: IZH1-4 were cloned into pRS316-GAL1 via gap repair as previously described (Lyons et al., 2004). The triple hemaglutinin epitope (3×HA) tagged construct of the IZH2 gene was generated by replacing the ZRC1 promoter and open reading frame in the YCpZRC1-HA plasmid (MacDiarmid et al., 2002) with those of IZH2. This was accomplished by gap repair of Age I-digested YCpZRC1-HA to generate pIZH2-3×HA. This construct has the IZH2 gene driven by its native promoter and retains the ZRC1 terminator sequence. The native IZH2 promoter was then exchanged with the GAL1 promoter using gap repair of pIZH2-3×HA plasmids cut with EcoN I. AdipoR1 and AdipoR2 were amplified from cDNAs obtained from OpenBiosystems (Accession #: BC010743 and BC051858, respectively). PCR products were cloned into NcoI/BamHI digested pYES260 vector (Melcher, 2000) by gap repair allowing for GAL1-driven expression. Plasmids containing GAL1-driven the TAP (Tandem Affinity Purification) tagged NRG1 and NRG2 constructs were purchased from OpenBiosystems.
Most experiments were performed in a defined EDTA-containing medium known as low iron medium (LIM) (Eide et al., 1992). Iron-deficiency and repletion were generated by adding either 1 μM or 1 mM of FeCl3, respectively, to LIM. 2% galactose was used to fully induce GAL1-driven gene overexpression. Total sugar concentration was maintained at 2% by the addition of raffinose in those experiments in which the % galactose was modulated to decrease expression levels. Cells were allowed to grow to mid-log phase in LIM and β-galactosidase assays on permeabilized yeast were performed as previously described (Lyons et al., 2000). […]
as §1

B1: Adiponectin: insulin-sensitizing hormone, agonist of the human adiponectin receptors AdipoR1 and AdipoR2 (protein, UniProt Q15848 19-244, looked up)
Adiponectin: ETTTQGPGVLLPLPKGACTGWMAGIPGHPGHNGAPGRDGRDGTPGEKGEKGDPGLIGPKGDIGETGVPGAEGPRGFPGIQGRKGEPGEGAYVYRSAFSVGLETYVTIPNMPIRFTKIFYNQQNHYDGSTGKFHCNIPGLYYFAYHITVYMKDVKVSLFKKDKAMLFTYDQYQENNVDQASGSVLLHLEVGDQVWLQVYGEGERNGLYADNDNDSTFTGFLLYHDTN
- effect of ligand on FET3 in cells carrying empty expression plasmid (FET3): did not respond
- pFET3-397 repression by adiponectin (AdipoR1): repressed in a dose-dependent manner
- EC50 (AdipoR2; AdipoR2, FET3 repression in iron-deficient LIM): 2.4 pM
- pFET3-397 repression by adiponectin (AdipoR2; AdipoR2 in 2% galactose): repressed in a dose-dependent manner
